We go through 167 variants from the RNAGym collection of RNA variant scans (doi:10.1093/nar/gkz1192).

B1: CPEB3 Ribozyme (parent)
chain: UAACAGGGGGCCACAGCAGAAGCGUUCACGUCGCAGCCCCUGUCAGAUUCUGGUGAAUCUGCGAAUUCUGCUGUAUAUCUC

The variants in the data set derive from B1. Kind of data set: self-cleavage, relative activity (ratio to wild type); higher = more cleavage; in vitro, sequencing. In a few lines: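 Relative activity was defined as the cleaved/total read fraction for a variant divided by the same fraction for the unmutated ribozyme. CPEB3 self-cleaving ribozyme libraries were made by rounds of error-prone PCR, barcoded, and transcribed in vitro with T7 RNA polymerase for 5 hours at 37°C, and cleavage ran through transcription plus a 15 min DNase I step before EDTA. Illumina sequencing of template-switched reverse transcripts gave the reads, and DNA sequencing mapped the barcodes. Averages come from three batches, using variants with at least 5 reads.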
Regarding A18C U25C, the self-cleavage was found to be 0.27.

For A18G U41G, the self-cleavage was determined as 0.42.

For the variant A18G U41C, the self-cleavage is 0.68.

With A18G U41A, the self-cleavage came out at 0.26.

As for A18U G36U, the self-cleavage is 0.19.

On to A18G, for which the self-cleavage was 0.71.

Take A18C: the self-cleavage came out at 0.41.

Consider A18U, for which the self-cleavage turned out to be 0.4.

Regarding A18G A64U, the self-cleavage amounted to 0.29.

For A18G A64G, the self-cleavage came out at 0.43.

Consider A18G C29A, for which the self-cleavage was 0.26.

As to A18G C29U, the self-cleavage is 0.42.

On to A18G U74G, for which the self-cleavage was found to be 1.21.

With A18G U74C, the self-cleavage was determined as 1.1.

For A18G U74A, the self-cleavage came out at 0.95.

As for A18G C34U, the self-cleavage was 0.15.

Take A18G C34G: the self-cleavage was found to be 0.08.

Regarding A18G G36C, the self-cleavage came to 0.13.

With A18G G36A, the self-cleavage was found to be 0.31.

For A18G U69C, the self-cleavage was 1.18.

As for A18G U69G, the self-cleavage turned out to be 0.49.

For A18G U69A, the self-cleavage came out at 0.48.

With A18G A20G, the self-cleavage worked out at 0.49.

As for A18G A20U, the self-cleavage turned out to be 0.27.

As to A18C A20G, the self-cleavage turned out to be 0.44.

On to A18C A20U, for which the self-cleavage turned out to be 0.15.

On to A18C A57G, for which the self-cleavage was determined as 0.3.

Turning to A18U A47U, the self-cleavage turned out to be 0.3.

Take A18U A47G: the self-cleavage came to 0.37.

On to C17U U26A, for which the self-cleavage came out at 0.6.

Turning to C17U U26G, the self-cleavage came out at 0.09.

For C17U U26C, the self-cleavage was 0.29.

For A18C C79A, the self-cleavage worked out at 0.9.

For A18U A65G, the self-cleavage was found to be 0.28.

For the variant A18U A65U, the self-cleavage is 0.2.

For A18C C40A, the self-cleavage was 0.34.

Consider A18U G46U, for which the self-cleavage was determined as 0.2.

Turning to A18U G19A, the self-cleavage was determined as 0.15.

On to A18U G19U, for which the self-cleavage came out at 0.21.

A18U G19C: the self-cleavage was 0.23.

For the variant C17U U66C, the self-cleavage worked out at 0.23.

For C17U U54C, the self-cleavage amounted to 0.66.

For A18C U80A, the self-cleavage came out at 0.54.

As to A18C U80C, the self-cleavage was 0.54.

For the variant A18G G73A, the self-cleavage amounted to 1.24.

A18U G24A: the self-cleavage came to 0.36.

With A18G A35U, the self-cleavage amounted to 0.27.

A18G A35G: the self-cleavage is 1.06.

On to A18G A35C, for which the self-cleavage came to 0.38.

Consider C17U U49C, for which the self-cleavage stood at 0.15.

As to A18U G42C, the self-cleavage turned out to be 0.18.

On to A18U G42A, for which the self-cleavage was 0.36.

A18G C32A: the self-cleavage is 0.15.

Consider A18G C32G, for which the self-cleavage worked out at 0.1.

For A18G C32U, the self-cleavage was found to be 0.2.

For the variant A18G C62A, the self-cleavage stood at 0.23.

As to A18G C62G, the self-cleavage was 0.13.

With A18G C62U, the self-cleavage amounted to 0.32.

A18G G19C: the self-cleavage came out at 0.2.

Take A18G G19U: the self-cleavage stood at 0.32.

For the variant A18G G30A, the self-cleavage was 0.2.

Consider A18C C68A, for which the self-cleavage worked out at 0.18.

As for A18C U60C, the self-cleavage turned out to be 0.28.

In the case of A18C U60A, the self-cleavage worked out at 0.23.

For A18C U69A, the self-cleavage amounted to 0.52.

In the case of A18C U69C, the self-cleavage was 0.35.

As for A18G U25C, the self-cleavage came out at 0.26.

For the variant A18G U25G, the self-cleavage was 0.17.

As to A18G U25A, the self-cleavage amounted to 0.38.

For A18C U74G, the self-cleavage worked out at 0.31.

As to A18C U74C, the self-cleavage came to 0.58.

As for A18U A56G, the self-cleavage amounted to 0.3.

With A18U A56C, the self-cleavage is 0.21.

As for A18U A56U, the self-cleavage was 0.31.

With A18C U48C, the self-cleavage was determined as 0.25.

Take A18C U48A: the self-cleavage was determined as 0.2.

Turning to A18G C81A, the self-cleavage stood at 0.55.

A18U A77U: the self-cleavage came to 0.48.

On to A18U A77G, for which the self-cleavage amounted to 0.51.

Regarding A18G U43G, the self-cleavage was 0.36.

With A18G U43A, the self-cleavage was found to be 0.72.

As for A18G U43C, the self-cleavage was 0.35.

As for A18U C40G, the self-cleavage was determined as 0.18.

Turning to A18U C40A, the self-cleavage came out at 0.13.

For the variant A18U C40U, the self-cleavage was found to be 0.45.

Consider A18G A21C, for which the self-cleavage stood at 0.4.

Take A18G A21U: the self-cleavage was 0.33.

Take A18G A21G: the self-cleavage worked out at 0.4.

Regarding A18C U58C, the self-cleavage is 0.3.

For A18C U58A, the self-cleavage stood at 0.21.

For A18U C38U, the self-cleavage amounted to 0.31.

Regarding A18G C37A, the self-cleavage came to 0.32.

For the variant A18U G52U, the self-cleavage amounted to 0.39.

As for A18U G52A, the self-cleavage was 0.39.

On to A18U A57G, for which the self-cleavage was found to be 0.37.

As to A18U A57U, the self-cleavage was determined as 0.33.

For A18G G70A, the self-cleavage amounted to 0.37.

Consider A18G G70C, for which the self-cleavage came out at 0.13.

Take A18U G30A: the self-cleavage worked out at 0.15.

In the case of A18U G30U, the self-cleavage was 0.17.

Take A18C U72A: the self-cleavage came out at 0.16.

Consider A18C U72G, for which the self-cleavage is 0.12.

Regarding A18C U72C, the self-cleavage was determined as 0.46.

In the case of A18C U31A, the self-cleavage came out at 0.19.

As for A18C U31C, the self-cleavage worked out at 0.28.

Turning to A18G U76C, the self-cleavage stood at 0.58.

For A18G U76A, the self-cleavage was 0.73.

Turning to A18U C39U, the self-cleavage was 0.3.

For the variant A18U C39A, the self-cleavage came to 0.24.

Consider A18G G42U, for which the self-cleavage amounted to 0.27.

Turning to A18U C44G, the self-cleavage worked out at 0.24.

As to A18U C44A, the self-cleavage was 0.15.

With A18U C44U, the self-cleavage was determined as 0.2.

A18G G53U: the self-cleavage was 0.56.

Consider A18G G53A, for which the self-cleavage was 0.9.

With A18U A35U, the self-cleavage amounted to 0.22.

In the case of A18U A35C, the self-cleavage came out at 0.34.

For the variant A18U A35G, the self-cleavage stood at 0.7.

Regarding A18U C50A, the self-cleavage came to 0.4.

For A18U C50U, the self-cleavage came to 0.42.

A18G G22U: the self-cleavage was 0.22.

Turning to A18G G22C, the self-cleavage was found to be 0.24.

Turning to A18G G22A, the self-cleavage was 0.24.

Turning to A18G C38U, the self-cleavage stood at 0.73.

Consider A18C C27U, for which the self-cleavage came to 0.21.

Regarding A18G A56G, the self-cleavage was 0.55.

Regarding A18G A56C, the self-cleavage was 0.25.

Take A18G A56U: the self-cleavage was 0.35.

Take A18G C79G: the self-cleavage was found to be 0.73.

For the variant A18G C79U, the self-cleavage was 0.9.

On to A18C C38U, for which the self-cleavage was 0.12.

Regarding A18C U41A, the self-cleavage was determined as 0.32.

Turning to A18C U41C, the self-cleavage came out at 0.34.

Regarding A18C U41G, the self-cleavage stood at 0.53.

Regarding A18C U43C, the self-cleavage is 0.21.

Take A18C U43A: the self-cleavage is 0.64.

As for A18C U43G, the self-cleavage came out at 0.07.

In the case of A18G U26A, the self-cleavage stood at 0.48.

As for A18G U26C, the self-cleavage was determined as 0.33.

With A18C G30A, the self-cleavage was 0.31.

As for A18G U51G, the self-cleavage was 0.77.

Regarding A18G U51A, the self-cleavage was 0.74.

Take A18G U51C: the self-cleavage turned out to be 0.48.

In the case of C17U U31C, the self-cleavage worked out at 0.42.

As to A18G G33A, the self-cleavage is 0.23.

Regarding A18G G33U, the self-cleavage was 0.19.

As to A18C A64G, the self-cleavage turned out to be 0.38.

On to A18G C50U, for which the self-cleavage was found to be 0.63.

Take C17U U60A: the self-cleavage is 0.23.

As to C17U U60C, the self-cleavage was 0.21.

As for A18U A45U, the self-cleavage was found to be 0.25.

Take A18U A45G: the self-cleavage worked out at 0.32.

For the variant A18U A45C, the self-cleavage came out at 0.16.

A18C C39A: the self-cleavage came to 0.41.

With A18G U49C, the self-cleavage was determined as 0.29.

For A18G U49A, the self-cleavage turned out to be 0.32.

Regarding A18C C71A, the self-cleavage turned out to be 0.09.

For A18G U78A, the self-cleavage was 0.82.

As for A18G U78G, the self-cleavage was determined as 0.53.

For the variant A18G U78C, the self-cleavage stood at 0.82.

As to A18G G46U, the self-cleavage was 0.16.

Take A18G G46A: the self-cleavage worked out at 0.35.

In the case of A18G C71U, the self-cleavage was 0.28.

For the variant A18G C71A, the self-cleavage was 0.29.

Turning to A18G C71G, the self-cleavage amounted to 0.27.

As for A18G C68A, the self-cleavage turned out to be 0.21.

For A18G C68U, the self-cleavage came out at 0.52.
